Results taken from US20100223690A1, “COMPOSITIONS AND METHODS FOR MODULATING PLANT DISEASE RESISTANCE AND IMMUNITY” (Washington State University, published 2010).

T1: AtSR1 (CAMTA3) CG-1 DNA-binding domain (Arabidopsis thaliana, UniProt Q8GSA7 SEQ:1-153)
T1 sequence: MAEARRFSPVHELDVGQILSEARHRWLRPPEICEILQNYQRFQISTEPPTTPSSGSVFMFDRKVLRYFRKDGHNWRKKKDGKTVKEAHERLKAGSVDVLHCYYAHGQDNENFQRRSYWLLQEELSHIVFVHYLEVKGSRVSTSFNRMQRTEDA


Columns and labels:
[1] = target: Ca2+/calmodulin (endogenous, in Arabidopsis plants) (Arabidopsis thaliana); experiment: cell-based or functional assay
[2] = target: T1, AtSR1 (CAMTA3) CG-1 DNA-binding domain; experiment: EMSA; Ca2+/CaM-independent; conditions: tags: 6xHis (pET32a)
Procedure: (§1) The E. coli strain BL21(DE3)/pLysS carrying the above pET32a derived plasmids for expression of recombinant proteins of the wild-type and mutated versions of AtSR1, AtSR6 or ABF1 were induced with 0.5 mM IPTG for 3 hours. 6×His tagged recombinant proteins were purified using Ni-NTA agarose affinity beads (Qiagen) as described by the manufacturer. Recombinant AtSR1 or AtSR6 covering CG-1 domain, or ABF1 was used for EMSA³² to detect its interaction with WT or mutated EDS1 promoter fragments. Recombinant AtSR1 containing CaMBD was used for CaM overlay assay³⁸.

[3] = target: T1, AtSR1 (CAMTA3) CG-1 DNA-binding domain; experiment: EMSA; binding is ACGCGT-dependent; conditions: tags: 6xHis (pET32a)
Procedure: as §1

Molecule | level of SA in complemented plants [1] | further results
full-length wild-type AtSR1 fused to Flag tag, expressed from 35S::AtSR1 in atsr1-1 plants (from UniProt Q8GSA7 1-1032) | 60 % of WT | –
full-length AtSR1 I909V fused to Flag tag, expressed from 35S::AtSR1I909V in atsr1-1 plants (from UniProt Q8GSA7 1-1032) | 60 % of WT | –
EDS1P probe (-762 to -731) (dsDNA) DNA 1: GTAAAAGTCGAATGTGACGCGTCTTGCCGAAC DNA 2: GTTCGGCAAGACGCGTCACATTCGACTTTTAC | – | binding result [2]: binds
eds1p mutant probe (dsDNA, [19 (G>C)]) DNA 1: GTAAAAGTCGAATGTGACCCGTCTTGCCGAAC DNA 2: GTTCGGCAAGACGGGTCACATTCGACTTTTAC | – | binding result [3]: no binding
